From patent US20130289246A1 come the findings set out here.

Bounds are passed on as bounds.

One may read the Kd as the constant that tells how readily two partners part at equilibrium. What is called koff is a measure of how fast the partners let go of each other. A word on the kon: it is a measure of how fast the partners come together.

The target in experiment [1] is soluble 1999 H1 HA (seasonal 1999 H1N1) (Influenza A virus (H1N1, 1999)). Put plainly: ELISA, supernate. A general note: An ELISA detects its analyte on a solid surface through an enzyme-linked reagent.
The target of experiment [2] is soluble 2004 H5 HA (Influenza A virus (H5N1, 2004)). Put plainly: ELISA, supernate.
Experiment [3] addresses recombinant soluble trimeric 2009 H1 HA (A/California/04/2009, wild type) (Influenza A virus A/California/04/2009 (H1N1)). Put plainly: ELISA, supernate.
Experiment [4] concerns the target recombinant soluble 1957 H2 HA (A/Japan/305+/1957) (Influenza A virus A/Japan/305+/1957 (H2N2)). As to the kind of experiment: ELISA, supernate.
In experiment [5] the target is recombinant soluble trimeric 2009 H1 HA (A/California/04/2009, wild type) (Influenza A virus A/California/04/2009 (H1N1)). As to the kind of experiment: biolayer interferometry (Octet Red), His-tagged HA on anti-Penta-HIS tips. Background: In BLI a coated tip is dipped into the sample, and binding shifts an interference pattern.
In experiment [6] the target is HA of A/L3/1947 (H1N1) virus (Influenza A virus (H1N1)). As to the kind of experiment: cell-based or functional assay.
Experiment [7] concerns the target HA of A/USSR/92/1977 (H1N1) virus (Influenza A virus (H1N1)). Put plainly: cell-based or functional assay.
Experiment [8] deals with HA of A/New Caledonia/20/1999 (H1N1) virus (Influenza A virus (H1N1)). Put plainly: cell-based or functional assay.
Experiment [9] deals with HA of A/Brisbane/59/2007 (H1N1) virus (Influenza A virus (H1N1)). As to the kind of experiment: cell-based or functional assay.
Experiment [10] deals with HA of A/South Carolina/1/1918 (H1N1), wild type, on VLP (Influenza A virus A/South Carolina/1/1918 (H1N1)) (UniProt Q9WFX3). Put plainly: cell-based or functional assay.
For experiment [11], the target named is HA of A/swine/Iowa/15/1930 (H1N1) virus (Influenza A virus (H1N1)). As to the kind of experiment: cell-based or functional assay.
For experiment [12], the target named is HA of A/New Jersey/11/1976 (H1N1) virus (Influenza A virus (H1N1)). As to the kind of experiment: cell-based or functional assay.
Experiment [13] addresses HA of A/Weiss/1943 (H1N1) virus (Influenza A virus (H1N1)). Put plainly: cell-based or functional assay.
Experiment [14] has as its target HA of A/California/04/2009 (H1N1) virus (Influenza A virus (H1N1)). As to the kind of experiment: cell-based or functional assay.
The target of experiment [15] is recombinant soluble trimeric 1918 H1 HA (A/South Carolina/1/1918, wild type) (Influenza A virus A/South Carolina/1/1918 (H1N1)) (UniProt Q9WFX3). Put plainly: ELISA, supernate.
In experiment [16] the target is recombinant soluble 1968 H3 HA (A/Aichi/2/1968) (Influenza A virus A/Aichi/2/1968 (H3N2)) (UniProt P03437). Put plainly: ELISA, supernate.

B1: mAb 5J8 (antibody, V domains shown)
VH: EVQLVESGPGLVKPSDILSLTCAVSGYSISSNYYWGWIRQPPGKGLEWIGSIYHSGSTYYKPSLESRLGISVDTSKNQFSLKLSFVSAADTAVYYCARHVRSGYPDTAYYFDKWGQGTLVTVS
VL: SYVLTQPPSVSVAPGETARISCGGNNIGTKVLHWYQQTPGQAPVLVVYDDSDRPSGIPERFSGSNSGNTATLTISRVEVGDEADYYCQVWDISTDQAVFGGGTKLTVLG
Take B1: the OD is 1.46 OD in experiment [1], 0.077 OD in [2], 1.93 OD in experiment [3] and 0.077 OD in experiment [4].

B2: 5J8 Fab (Fab, V domains shown)
VH: EVQLVESGPGLVKPSDILSLTCAVSGYSISSNYYWGWIRQPPGKGLEWIGSIYHSGSTYYKPSLESRLGISVDTSKNQFSLKLSFVSAADTAVYYCARHVRSGYPDTAYYFDKWGQGTLVTVS
VL: SYVLTQPPSVSVAPGETARISCGGNNIGTKVLHWYQQTPGQAPVLVVYDDSDRPSGIPERFSGSNSGNTATLTISRVEVGDEADYYCQVWDISTDQAVFGGGTKLTVLG
As to B2, in experiment [5], the Kd is 26 nM, the koff came to 0.0065 s⁻¹ and the kon amounted to 250000 M⁻¹ s⁻¹.

B3: mAb 2O10 (antibody, V domains shown)
VH: EVQLVESGGGLVQPGGSLRLSCAASGFTFNSYWMTWVRQAPGKGLEWVANINQDGSEKFFVDSVKGRFTISRDNAKTSLYLQMNSLRVEDTAVYYCAREGAPYDTYYYYYAMDVWGQGTTVTVS
VL: QSVLTQPPSVSGAPGQRVTISCTGTSSNIGAGYGVHWYQQLPGAAPKLLVYGNSNRPSGVPDRFSGSKSGTSASLAITGLQAEDEADYYCQSYDISLSGSNVFGTGTKVTVLG
Take B3: the OD in [1] was found to be 0.872 OD; in experiment [2], 0.072 OD; in experiment [3] it was 1.62 OD; in experiment [4], 0.073 OD.

B4: mAb 4K8 (antibody, V domains shown)
VH: EVQLVESGGGLVQPGGSLRLSCAASEFNFKSYWMTWVRQAPGKGLEWVANINQDGSEKNYVDSVKGRFTISRDNAKNSLHLQMSSLRVDDTAVYYCARTGSSWDTYYYYYAMDVWGQGTTVTVS
VL: DIQLTQSPVSLSLSPGERATLSCRASQSVSSSYLVWYQQKPGQAPRLLIYGASSRAPGIPDRFSGSGSGTDFTLTISRLEREDFAVYYCQQYGRSFGQGTKVEIKR
With B4, the HAI activity in experiment [6] is over 20 µg/mL; in experiment [7], 0.32 µg/mL; in experiment [8], over 20 µg/mL; in experiment [9], over 20 µg/mL; in experiment [10] it was under 0.01 µg/mL; in experiment [11] it was under 0.01 µg/mL. In addition, the HAI activity was 0.16 µg/mL in [12], over 20 µg/mL in [13] and under 0.01 µg/mL in experiment [14].

B5: mAb 3E22 (antibody, V domains shown)
VH: EVQLVESGAEVKKPGASVKVSCKASGYTFSRYYIHWVRQAPGQELEWMGWINPDSGDTNYAQKFRGRVTMARDTSISTVYMELNSLRYDDTAVYFCARIIWSSSGMDVWGQGTTVTVS
VL: QSALTQPASVSGSPGQSITISCTGTSSDVGSYNLVSWYQQHPGKAPKLMIYEVSKRPSGVSNRFSGSKSGNTASLTISGLQAEDEADYYCHLYVGSSNWVFGGGTKLAVLG
For the molecule B5, the OD in experiment [1] came to 2.06 OD; in [2], 1.57 OD; in [3] it was 2.38 OD; in [4], 1.18 OD.

B6: mAb 25J3 (antibody, V domains shown)
VH: QVQLQESGPGLVRPSETLSLTCNVSGDSINDYYWSWIRQPPGKGLEWIGYIYYSGSTNYNPSLNSRVTISVEMSKNQFSLILNSVTAADTAVYYCARVDYDSGGSFDPWGQGTLVTVS
VL: QSVLTQPPSVSGAPGQRVTISCTGSSSNIGAGYDVHWYQQLPGTAPKLLIYGNSNRPSGVPDRFSGSKSGTSASLAITGLQAEDEADFYCQSYDSRLSGYVFGTGTKVTVLG
Take B6: the OD in [1] came to 0.071 OD; in experiment [2] it was 0.07 OD; in experiment [3] it was 0.071 OD; in experiment [4], 0.07 OD.

B7: mAb 3J10 (antibody, V domains shown)
VH: EVQLVESGGGVVQPGRSLRLSCAASGFSFSNYAMHWVRQAPGKGLEWVALISFDGSDKYYADSVKGRFTMSRDNSKNTLYLQMNSLRAEDTAVYYCARDEPYCGGDCFAFDVWGQGTMVTVS
VL: QSVLTQPPSVSGAPGQRVTISCTGSSSNIGAGYDVHWYQQLPGTAPKLLIYANNNRPSGVPDRFSGSKSGTSASLAITGLQAEDEADYYCQSYDSSLSGGVFGTGTTVTVLG
As to B7, the OD in [1] was determined as 0.711 OD; in [2] it was 0.075 OD; in experiment [15], 0.069 OD; in experiment [16], 0.076 OD; in [3], 0.073 OD; in experiment [4], 0.074 OD.

B8: mAb 6K14 (antibody, V domains shown)
VH: EVQLVESGAEVKKPGASVKVSCKASGYTFTSFDINWVRQAPGQGLEWMGWMTPTSGKTGYAQKFQGRITMTRNTSINTAYMELSSLRSEDTAVYFCARGPERRTTIFDVILDWFDPWGQGTLVTVS
VL: DIVMTQSPFSLSLSPGERATLSCRASQSISNYLAWYQQKPGQAPRLLIYDSSNRATGVPARFSGSGSGTDFTLTISSLEPEDFAVYYCQQRSNWMYTFGQGTKVEIKR
Take B8: the OD in [1] was found to be 0.203 OD; in [2] it was 1.12 OD; in experiment [3], 2.12 OD; in [4] it was 1.93 OD.

B9: mAb 18G6 (antibody, V domains shown)
VH: QVQLKESGPGLVKPSETLSLTCTVSGGSISSSNYNWGWIRQPPGKGLEWIGSVYYSGSTYFNPSLKSRVTISVDTSKNQFSLKLTSVTAADTAVYYCARLIAFYYDTNGYTWGQGTLVTVS
VL: NSIMTQSPFTLSASVGDKVTITCRASQSISPWLAWYQQKPGKAPKLLIYKASSLETGVPSRFSGSESGTEFTLTISGLQPDDFATYYCQQYSSFARTFGQGTKVEIKR
Turning to B9, the OD in experiment [1] amounted to 0.071 OD; in experiment [2] it was 0.071 OD; in [3], 0.071 OD; in experiment [4], 0.757 OD.

B10: mAb 8F24 (antibody, V domains shown)
VH: EVQLLESGGGLVQPGGSLRLSCAASGFAFSSYGMSWVRQAPGKGLEWVSAFSGSGTSTYYADSVKGRFTISRDKSKNTLYLQMNSLRAEDTAIYYCAKPPGPYIVVAGLFENWGRGTLVTVS
VL: EIVMTQSPATLSVSPGERVTLSCRASQSITDGLAWYQQKSGQAPRLLIYGASTRATGIPARFSGSGSGTEFTLTISSLQSEDFAVYYCQQYNNWPPVTFGQGTKVEIKR
In the case of B10, the OD in experiment [1] stood at 1.01 OD; in experiment [2] it was 0.074 OD; in [15] it was 0.209 OD; in [16] it was 0.669 OD; in experiment [3], 0.714 OD; in [4], 0.073 OD.

B11: mAb 25F7 (antibody, V domains shown)
VH: EVQLLESGGGLVQPGGSLRLSCAASGFAFSSYGMSWVRQAPGKGLEWVSAFSGSGTSTYYADSVKGRFTISRDKSKNTLYLQMNSLRAEDTAIYYCAKPPGPYIVVAGLFENWGRGTLVTVS
VL: QSVLTQPPSVSGAPGQRVTISCTGTSSNIGAGYEVHWYQQLPGTAPKLIINANTNRPSGVPDRFSGSQSGTSASLAITGLRAEDEADYYCQSFDSSLSGWLFGGGTKLTVLG
Take B11: the OD in experiment [1] was determined as 0.077 OD; in experiment [2] it was 0.076 OD; in experiment [15], 0.075 OD; in [16], 0.085 OD; in experiment [3], 0.078 OD; in experiment [4], 0.871 OD.

B12: mAb 11J19 (antibody, V domains shown)
VH: EVQLQESGPGLVKPSETLSLSCTVSGGSITRSSYYWGWIRQPPGKGLEWIGNIYYSGTTYYNPSLKSRVTISVDTSKNQFSLKLSSVTAADTAVYYCARLYGSGLDYWGQGTLVTVS
VL: DIQLTQSPSFLSASVGDRVTITCRASQGSSRYVAWYQQKPGKAPKLLILAASTLHTGVPSRFSGSGSGTEFTLTISSLQPEDFATYSCQQLNGFLLTFGGGTKVEIKR
For B12, the OD in [1] amounted to 0.071 OD; in experiment [2], 0.067 OD; in experiment [3], 0.081 OD; in [4], 0.079 OD.

B13: mAb 2K11 (antibody, V domains shown)
VH: EVQLVESGGGLVQPGGSLRLSCVASTFSLINYWMTWVRQAPGKGLEWVANIKQDGFEKYYVDSVKGRFTISRDNAKNSLYLQMNSLRVEDTAVYYCARQGSYADTYFYHYGMDVWGQGTTVTVS
VL: QSALTQPPSVSGAPGQRVTISCTGSSSNIGAGYDAYWYQQLPGTAPKLLIYGNSNRLSGVPDRFSASKSGTSASLAITGLQAEDEADYYCQSYDSSLSIFGGGTKLTVLR
For B13, the OD stood at 0.518 OD in experiment [1], 0.075 OD in [2], 1.28 OD in [3] and 0.08 OD in [4].

B14: mAb 10E15 (antibody, V domains shown)
VH: EVQLLESGGGVVQPGRSLRLSCAASGFTFRTYGMHWVRQAPGKGLEWVAVISHDGNLKYYGGSVKGRFTISRDNSKNALYLQMNSLRVDDTALYYCARGIGITDAFDIRGQGTMVVVS
VL: QSVLTQPPSVSAAPGQKVTISCSGSSSNIGKNYVSWYQQLPGTAPKLLIYDNDKRPSGIPDRFSGSKSGTSATLGITGLQTGDEADYHCGAWDSSLNGGVFGGGTKVTVLG
Turning to B14, the OD worked out at 0.514 OD in experiment [1], 1.69 OD in experiment [2], 0.996 OD in experiment [3] and 0.485 OD in experiment [4].
